Measurements taken from publication PMC4810211, “DNA Aptamers against Taiwan Banded Krait α-Bungarotoxin Recognize Taiwan Cobra Cardiotoxins”.
Changes are numbered by the printed parent chain.

Tests used:
[1] = target: alpha-bungarotoxin (α-Bgt) (Bungarus multicinctus (Taiwan banded …, UniProt P60615 22-95)); test: fluorescence quenching titration; 10 mM Tris-HCl pH 7.5, 1 mM EDTA, 100 mM NaCl; temperature not stated; […]; conditions: protein: native; tags: none; label: 5'-FAM
[2] = target: T1, cardiotoxin 3 (CTX3) (Naja atra (Taiwan cobra), UniProt P60301 22-81); test: fluorescence quenching titration; 10 mM Tris-HCl pH 7.5, 1 mM EDTA, 100 mM NaCl; temperature not stated; fluorescence with 4 nM aptamer (ex 480/em 520 nm); EMSA with 5 uM aptamer, 20 min, 2% agarose, TAE; conditions: protein: native, tags: none, label: 5'-FAM
T1 sequence: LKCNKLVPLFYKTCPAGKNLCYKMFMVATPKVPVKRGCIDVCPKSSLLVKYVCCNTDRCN

[3] = target: T2, cardiotoxin-like protein (CLBP) (Naja atra (Taiwan cobra), UniProt P62375 22-83); test: fluorescence quenching titration; 10 mM Tris-HCl pH 7.5, 1 mM EDTA, 100 mM NaCl; temperature not stated; […]; conditions: protein: native; tags: none; label: 5'-FAM
T2 sequence: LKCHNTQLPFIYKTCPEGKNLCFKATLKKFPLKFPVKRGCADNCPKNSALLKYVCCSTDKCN

[4] = target: T3, cardiotoxin 5 (CTX5) (Naja atra (Taiwan cobra), UniProt Q98961 22-81); test: as above; conditions: protein: native; tags: none; label: 5'-FAM
T3 sequence: T1 sequence with A28S, T29N, P30K, K31M, S45N, L47A

[5] = target: T4, cardiotoxin N (CTXN) (Naja atra (Taiwan cobra), UniProt P80245 22-81); test: as above; conditions: protein: native; tags: none; label: 5'-FAM
T4 sequence: T1 sequence with K5Q, V7I, L9P, P15A, T29A

[6] = target: T5, cardiotoxin 4 (CTX4) (Naja atra (Taiwan cobra), UniProt P01443 22-81); test: fluorescence quenching titration; 10 mM Tris-HCl pH 7.5, 1 mM EDTA, 100 mM NaCl; temperature not stated; fluorescence with 4 nM aptamer (ex 480/em 520 nm); EMSA with 5 uM aptamer, 20 min, 2% agarose, TAE; conditions: protein: native; tags: none; label: 5'-FAM
T5 sequence: T1 sequence with L1R, A28S, T29N, P30L, K31T, S45N, L47A

[7] = target: T6, cardiotoxin 2 (CTX2) (Naja atra (Taiwan cobra), UniProt P01442 22-81); test: as above; conditions: protein: native; tags: none; label: 5'-FAM
T6 sequence: T1 sequence with A28S, T29N, P30L, K31T, S45N, L47A

[8] = target: T7, cardiotoxin 1 (CTX1) (Naja atra (Taiwan cobra), UniProt P60304 22-81); test: as above; conditions: protein: native; tags: none; label: 5'-FAM
T7 sequence: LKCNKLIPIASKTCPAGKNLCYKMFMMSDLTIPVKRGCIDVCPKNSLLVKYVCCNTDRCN

Sequence of alpha-bungarotoxin (α-Bgt) (Bungarus multicinctus (P60615 22-95): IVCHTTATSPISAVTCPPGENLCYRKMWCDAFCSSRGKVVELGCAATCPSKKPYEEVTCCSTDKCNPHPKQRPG

Binder: AGAAACGTAGCGGTAACTGCTAGAATGCGCCGAGAGAGCG (ssDNA) [FAM-bgt4]
- Kd [1]: 280 nM
- Kd [2]: 1170 nM

Binder: ATCATGTCTTTTCGGGATGGGCAAGAAGGGAAATAATGC (ssDNA) [FAM-bgt3]
- Kd [1]: 140 nM
- Kd [2]: 1260 nM

Binder: GCGAGGTGTTCGAGAGTTAGGGCGACATGACCAAACGTT (ssDNA) [FAM-bgt1]
- Kd [1]: 2210 nM
- Kd [3]: 7190 nM
- Kd [4]: 17200 nM
- Kd [5]: 8850 nM
- Kd [6]: 8130 nM
- Kd [7]: 6290 nM
- Kd [2]: 2250 nM
- Kd [8]: 2510 nM

Binder: GCGAGGTGTTCGAGAGTTAGGGCGACATGACCAAACGTT (ssDNA) [FAM-bgt1-DABCYL]
- Kd ([2]; 3'-DABCYL): 2350 nM

Binder: AGGGCACAGAGAAGAAGTCGTGGATTTGAATGGTTTTGGT (ssDNA) [FAM-bgt2]
- Kd [1]: 460 nM
- Kd [2]: 260 nM
